We go through 2 proteins from patent US20210381002A1 (CORNELL UNIVERSITY, published 2021).

Series [1] concerns the molecule itself. The experiment in a line: Sephacryl size exclusion column fractions, anti-HA Western (self-association, tetramer formation). Here is the method: FIGS. 6A-B. Modified SOD3 construct. A) Secretion of the modified SOD3 constructs. Western (anti-HA tag) of supernatant of 293T cells transfected with: lane 1—mock; lane 2—unmodified HA tagged SOD3; lane 3—SOD3hd⁻. Only SOD3hd⁻ is in the supernatant. […] Approximate MW are calculated from column specifications.
Two modifications were made in a single SOD3 variant (hSOD3hd⁻), including a deletion of residues 50-59 replaced with an in frame copy of the residue segment from 74-80, and a deletion of residues 212-240, the heparin-binding domain. […] Intravenous administration to Balb/c mice led to vector DNA in liver and lung (liver 50-fold higher) and SOD activity in serum (FIG. 7D-F). LEX 5c, LEX 5d. Based on the in vitro and in vivo functional data of LEX 5a and LEX 5b, LEX 5c and LEX 5d were generated to express both catalase and SOD3 modified monomers. Based on expressing 2 genes in 1 AAV construct (De et al., 2008; Wang et al., 2010; Watanabe et al., 2010; Mao et al., 2011; Rosenberg et al., 2012; Hicks et al., 2012; Xie et al., 2014; Hicks et al., 2015; Pagovich et al., 2016; Liu et al., 2016), both […] use a single promoter, with the 2 modified cDNA separated by a furin 2A cleavage site which directs cleavage of the resulting precursor protein to generate the 2 function proteins. […]
A general note: Size exclusion chromatography separates by hydrodynamic size, large species first.

Series [2] deals with the molecule itself. The series can be described thus: Bis-Tris gel of 293T supernatant (self-association, tetramer formation). The method, then:
FIG. 14. Assessment of supernatants of catalase constructs for monomeric and multimeric catalase separation. Samples were assessed on Bis-Tris gel, blotted and probed with anti-catalase antibody (ABCAM: ab88067); predicted band sizes, 60 kDa for monomer and 240 kDa for tetramer, aAll 3 constructs secreted only the monomeric construct.
Three modifications of the human catalase sequence were assessed: hCatNT⁻, hCatWL⁻ and hCatNT⁻WL⁻. […] However, of the 3 constructs, only the wrapping loop domain deletion (hCatWD⁻) retained catalase activity (FIG. 5B). […] Intravenous administration to mice led to detection of hCatWD⁻ DNA in the liver and lung (typical for AAVrh.10 vectors) (Chiuchiolo et al., 2013), and importantly, easily detectable human catalase activity in serum, e.g., LEX 5a generates a secreted, functional catalase monomer (FIG. 7A-C).

B1: modified human superoxide dismutase 3 (hSOD3hd^-): residues 50-59 replaced with a copy of 74-80, and heparin-binding domain residues 212-240 deleted (enzyme)
chain: WTGEDSAEPNSDSAEWIRDMYAKVTEIWQEVATLDAAQHAACQVQPSATLDAAQPRVTGVVLFRQLAPRAKLDAFFALEGFPTEPNSSSRAIHVHQFGDLSQGCESTGPHYNPLAVPHPQHPGDFGNFAVRDGSLWRYRAGLAASLAGPHSIVGRAVVVHAGEDDLGRGGNQASVENGNAGRRLACCVVG
notes: also called expression product of LEX 5b; not shown: Hemagglutinin (HA) tag used for detection with anti-HA
B1: the binding result in series [1] was “no binding”.

B2: human catalase monomer with a 20 amino acid deletion from the wrapping loop domain (hCatWL^-) (enzyme)
chain: ADSRDPASDQMQHWKEQRAAQKADVLTTGAGNPVGDKLNVITVGPRGPLLVQDVVFTDEMAHFDRERIPERVVHAKGAGAFGYFEVTHDITKYSKAKVFEHIGKKTPIAVRFSTVAGESGSADTVRDPRGFAVKFYTEDGNWDLVGNNTPIFFIRDPILFPSFIHSQKRNPQTHLKDPDMVWDFWSLRPESLHQVSFLFSDRGIPDGHRHMNGYGSHTFKLVNANGEAVYCKFHYKTDQGIKNLSVEDAARLSQEDPDYGIRDLFNAIATGKYPSWTFYIQVMTFNQAETFPFNPFDLTKVWPHKDYPLIPVGKLVLNRNPVNYFAEVEQIAFDPSNMPPGIEASPDKMLQGRLFAYPDTHRHRLGPNYLHIPVNCPYRAPNYYPNSFGAPEQQPSALEHSIQYSGEVRRFNTANDDNVTQVRAFYVNVLNEEQRKRLCENIAGHLKDAQIFIQKKAVKNFTEVHPDYGSHIQALLDKYNAEKPKNAIHTFVQSGSHLAAREKANLYPYDVPDYA
notes: also called hCatWD^-
On to B2, for which the binding result in series [2] is listed as “no binding”.
